In test [1] the target is T1, EGF receptor sites on A431 human carcinoma cells (Homo sapiens, UniProt P00533).
T1 construct: Human epidermoid A431 cells have in excess of 10⁶ EGF receptors per cell; endogenous in cells; host or cells: A431 human epidermoid carcinoma cells (formalin-fixed in A1)
Briefly: 125I-EGF radioreceptor (binding competition) assay on formalin-fixed A431 cells. Here is the method: Purified EGF was labeled with Na¹²⁵I by a modification of the chloramine-T method as described in DeLarco et al. (1978) Proc. Natl. Acad. Sci. USA 75, pp. 4001-4005. The ¹²⁵I-EGF binding assay was performed on subconfluent monolayers of formalin-fixed A431 human carcinoma cells as previously described (in DeLarco et al. (1980) J. of Biol. Chem. 255, pp. 3685-3690). The fixed cells were washed twice with 0.5 ml of binding buffer (Dulbecco's modified Eagle's medium containing 1 mg/ml of bovine serum albumin and 50 mM 2-[bis(2-hydroxyethyl)amino]ethanesulfonic acid, pH 6.8). Competitions were initiated by the addition of 0.2 ml of binding buffer containing 0.4 ng of ¹²⁵I-EGF with or without potential inhibitor. After incubation for 1 h at 22°C, the specifically bound ¹²⁵I-EGF was determined. The TGF content was expressed by its degree of inhibition of the binding of ¹²⁵I-EGF to the EGF receptor. One EGF-competing activity unit is defined as the amount of protein that inhibits the binding of ¹²⁵I-EGF to its receptor by 50%.
TGF was quantitated in a radioreceptor assay based on receptor crossreactivity with mouse submaxillary gland epidermal growth factor (mEGF). […]

Test [2] deals with T2, tyrosine-specific protein kinase (Homo sapiens, UniProt P00533).
T2 construct: endogenous in cells; host or cells: human tumor cell membranes (said in the general description, not in the assay sentence)
As to the kind of experiment: Stimulation of tyrosine-specific protein kinase (phosphorylation of synthetic angiotensinyl peptide substrate). The test is classed as biochemical. From the text: A consequence of TGF or EGF binding to the EGF membrane receptors is the stimulation of phosphorylation of tyrosine residues of synthetic peptides or endogenous substrates (Pike et al. (1982) J. Biol. Chem. 257, pp. 14628-14631).

For the next test, the system named is NRK cells. As to the kind of experiment: Soft agar transforming assay with fetal bovine serum and TGF-beta. The test is classed as cell-based, rat. The note with it: in the absence of TGF-beta. From the text: Synthetic rTGF prepared in accordance with this Example was compared with natural rTGF in three assays for biological properties of the putative transforming growth factor.

The mark [3] stands for this setting: after oxidation and regeneration, prior to purification.

The results in this text go back to patent EP0132021B1, “TGF polypeptides, antigenic oligopeptides derived therefrom and antibodies produced therefrom” (Todaro, George Joseph, priority 1983, dated 1985).

As for “regenerated, crude rTGF-I: crude synthetic rTGF oxidized and regenerated by the mixed disulfide method, prior to any purification”, the “EGF-radioreceptor activity when compared to the natural rTGF-I” value in test [1] (setting [3]) was 40-50%. In test [2] (setting [3]), the “tyrosine-specific protein kinase activity when compared to the natural rTGF-I” value is 40-50%.
Turning to “synthetic rTGF: rat TGF made by stepwise solid-phase chemical synthesis, oxidized and purified to homogeneity”, the IC50 in test [1] (A431 human carcinoma cells, read-out: concentration required for 50% inhibition of 125I-EGF binding) is 4.1 nM. In addition, the “transformation of NRK cells in culture” value in the test with NRK cells was “does not produce such an effect”. Further, the EC50 in test [2] (read-out: half maximal activity, stimulation of phosphorylation of the synthetic angiotensinyl peptide substrate) stood at 0.3 nM.
